Results as given in patent US20220073581A1 (UCB, published 2022).

T1: IL-2-Rβ (IL-2 receptor β chain, R&D Systems) (UniProt P14784 27-239)
T1 construct: also called IL-2-sRβ
T1 sequence (looked up): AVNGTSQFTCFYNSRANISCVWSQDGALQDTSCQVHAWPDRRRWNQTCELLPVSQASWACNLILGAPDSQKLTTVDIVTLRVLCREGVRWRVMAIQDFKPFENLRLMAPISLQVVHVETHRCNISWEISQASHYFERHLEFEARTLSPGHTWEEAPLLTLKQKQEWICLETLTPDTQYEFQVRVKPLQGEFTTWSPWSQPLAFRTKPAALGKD


Legend:
human recombinant IL-17A = human recombinant IL-17A (human, UniProt Q16552 24-155, limits assumed); assay: cell-based or functional assay
[1] = biological target: T1, IL-2-Rβ (IL-2 receptor β chain, R&D …); assay: SPR (Biacore), fusion captured on anti-human F(ab)2, 100 nM IL-2-Rβ injected
Lysozyme (R&D Systems) = Lysozyme (R&D Systems) (UniProt P00698 19-147); assay: SPR, Fab construct captured via anti-human F(ab)2, lysozyme 0.1-10 nM, Langmuir model
Experimental: Briefly, the carboxymethyl dextran surface was activated with a fresh 1:1 (v/v) mixture of 50 mM N-hydroxysuccimide and 200 mM 1-ethyl-3-(3-dimethylaminopropyl)-carbodiimide for 5 minutes at a flow rate of 10 μL/min. The anti-human F(ab)₂ in 10 mM acetate pH 5.0 buffer was covalently coupled to chips at 50 μg/mL in a 10 minute pulse at the same flow rate. Finally the surface was deactivated with a 10 minute pulse of 1 M ethanolamine.HCl pH 8.5. A reference flow cell was prepared on the chip by omitting the protein from the above procedure.
A typical SPR cycle comprised a flow rate of 10 μL/min with HBS-EP as running buffer and diluted supernatant was injected for 1 min to capture the antibody/Fab fusion protein. This was followed by a 30 μl injection of the diluted cognate ligand or receptor or buffer control. The subsequent dissociation phase was monitored for at least 3 min. […] In some experiments a specificity control cycle was included where the cognate receptor/ligand (the insert portion of the antibody/Fab fusion protein) was pre-mixed with a 2-fold molar excess of its binding partner. Each cycle terminated with a regeneration step comprising two 10 μL injections of 40 mM HCl interspersed with a 5 μL injection of 5 mM NaOH.
Following capture of the Fab construct, 90 μl of the cognate ligand or buffer control was injected followed by a dissociation phase of 180 sec. A ligand binding over a range of concentrations (0.1, 0.2, 0.5, 1, 2, 5, & 10 nM) was tested. Sensorgrams were corrected for drift by subtraction of a zero ligand sensorgram and for non-specific interaction by subtraction of the wild type Fab corrected sensorgram. Affinity constants were calculated from separate dissociation and association rate constants that were fitted to the corrected sensorgrams using the Langmuir model of the BIAevaluation software (version 4.1.1).

Binder	binding result [1]	Kd (Lysozyme (R&D Systems)) [pM]	further results
CA645 Fab-Fwk3 CA497 dsscFv (vLvH) (bispecific antibody) heavy: EVQLLESGGGLVQPGGSLRLSCAVSGIDLSNYAINWVRQAPGKGLEWIGIIWASGTTFYATWAKGRFTISRDNSGGGGSGGGGSAIQLTQSPSSLSASVGDRVTITCKASESVSSSMYSYMHWYQQKPGKAPKLLIYRASNLESGVPSRFSGSGSGTDFTLTISSLQPEDFATYYCQQSWTAPRTFGCGTKVEIKGGGGSGGGGSGGGGSEVQLVESGGGLVKPGGSLRLSCAASGVIFSDYYMAWVRQAPGKCLEWVASINFNADISYYRESVKGRFTISRDDSKNTLYLQMNSLKTEDTAVYYCTTDANRQNYDWFAYWGQGTLVTVSSGGGGSGGGGSKNTVYLQMNSLRAEDTAVYYCARTVPGYSTAPYFDLWGQGTLVTVSSASTKGPSVFPLAPSSKSTSGGTAALGCLVKDYFPEPVTVSWNSGALTSGVHTFPAVLQSSGLYSLSSVVTVPSSSLGTQTYICNVNHKPSNTKVDKKVEPKSC light: DIQMTQSPSSVSASVGDRVTITCQSSPSVWSNFLSWYQQKPGKAPKLLIYEASKLTSGVPSRFSGSGSGTDFTLTISSLQPEDFATYYCGGGYSSISDTTFGGGTKVEIKRTVAAPSVFIFPPSDEQLKSGTASVVCLLNNFYPREAKVQWKVDNALQSGNSQESVTEQDSKDSTYSLSSTLTLSKADYEKHKVYACEVTHQGLSSPVTKSFNRGEC			IL-17A EC50 (ng/ml), neutralisation of IL-17A (IL-6 secretion by Hela cells), with HSA (human recombinant IL-17A): 10.8 ng/mL; IL-17A EC50 (ng/ml), neutralisation of IL-17A (IL-6 secretion by Hela cells), without HSA (human recombinant IL-17A): 10.5 ng/mL
CA645 Fab-Fwk3 CA497 dsscFv (vHvL) (bispecific antibody) heavy: EVQLLESGGGLVQPGGSLRLSCAVSGIDLSNYAINWVRQAPGKGLEWIGIIWASGTTFYATWAKGRFTISRDNSGGGGSGGGGSEVQLVESGGGLVKPGGSLRLSCAASGVIFSDYYMAWVRQAPGKCLEWVASINFNADISYYRESVKGRFTISRDDSKNTLYLQMNSLKTEDTAVYYCTTDANRQNYDWFAYWGQGTLVTVSSGGGGSGGGGSGGGGSAIQLTQSPSSLSASVGDRVTITCKASESVSSSMYSYMHWYQQKPGKAPKLLIYRASNLESGVPSRFSGSGSGTDFTLTISSLQPEDFATYYCQQSWTAPRTFGCGTKVEIKGGGGSGGGGSKNTVYLQMNSLRAEDTAVYYCARTVPGYSTAPYFDLWGQGTLVTVSSASTKGPSVFPLAPSSKSTSGGTAALGCLVKDYFPEPVTVSWNSGALTSGVHTFPAVLQSSGLYSLSSVVTVPSSSLGTQTYICNVNHKPSNTKVDKKVEPKSC light: DIQMTQSPSSVSASVGDRVTITCQSSPSVWSNFLSWYQQKPGKAPKLLIYEASKLTSGVPSRFSGSGSGTDFTLTISSLQPEDFATYYCGGGYSSISDTTFGGGTKVEIKRTVAAPSVFIFPPSDEQLKSGTASVVCLLNNFYPREAKVQWKVDNALQSGNSQESVTEQDSKDSTYSLSSTLTLSKADYEKHKVYACEVTHQGLSSPVTKSFNRGEC			IL-17A EC50 (ng/ml), neutralisation of IL-17A (IL-6 secretion by Hela cells), with HSA (human recombinant IL-17A): 8.7 ng/mL; IL-17A EC50 (ng/ml), neutralisation of IL-17A (IL-6 secretion by Hela cells), without HSA (human recombinant IL-17A): 10.6 ng/mL
CA645/IL-15Fwk3 with 2xG4S linker (Fab, also called CA645 Fab heavy chain with human IL-15 inserted into framework 3 with 2xG4S linker) heavy: not shown light: DIQMTQSPSSVSASVGDRVTITCQSSPSVWSNFLSWYQQKPGKAPKLLIYEASKLTSGVPSRFSGSGSGTDFTLTISSLQPEDFATYYCGGGYSSISDTTFGGGTKVEIKRTVAAPSVFIFPPSDEQLKSGTASVVCLLNNFYPREAKVQWKVDNALQSGNSQESVTEQDSKDSTYSLSSTLTLSKADYEKHKVYACEVTHQGLSSPVTKSFNRGEC	binds		
CA645/IL-15Fwk3 with bovine short linker (Fab, also called CA645 Fab heavy chain with human IL-15 inserted into framework 3 with bovine short linker) heavy: not shown light: DIQMTQSPSSVSASVGDRVTITCQSSPSVWSNFLSWYQQKPGKAPKLLIYEASKLTSGVPSRFSGSGSGTDFTLTISSLQPEDFATYYCGGGYSSISDTTFGGGTKVEIKRTVAAPSVFIFPPSDEQLKSGTASVVCLLNNFYPREAKVQWKVDNALQSGNSQESVTEQDSKDSTYSLSSTLTLSKADYEKHKVYACEVTHQGLSSPVTKSFNRGEC	binds		
CA645/IL-15Fwk3 with bovine long linker (Fab, also called CA645 Fab heavy chain with human IL-15 inserted into framework 3 with bovine long linker) heavy: not shown light: DIQMTQSPSSVSASVGDRVTITCQSSPSVWSNFLSWYQQKPGKAPKLLIYEASKLTSGVPSRFSGSGSGTDFTLTISSLQPEDFATYYCGGGYSSISDTTFGGGTKVEIKRTVAAPSVFIFPPSDEQLKSGTASVVCLLNNFYPREAKVQWKVDNALQSGNSQESVTEQDSKDSTYSLSSTLTLSKADYEKHKVYACEVTHQGLSSPVTKSFNRGEC	binds		
HyHEL5/VHH D3L11Fwk3 (anti-lysozyme HyHEL5 Fab with anti-lysozyme VHH D3L11 inserted into framework 3 of the light chain) (bispecific antibody, also called Antibody: HyHEL5 Fab, Framework 3 Insert: VHH D3L11) heavy: EVQLQQSGAELMKPGASVKISCKASGYTFSDYWIEWVKQRPGHGLEWIGEILPGSGSTNYHERFKGKATFTADTSSSTAYMQLNSLTSEDSGVYYCLHGNYDFDGWGQGTTLTVSSASTKGPSVFPLAPSSKSTSGGTAALGCLVKDYFPEPVTVSWNSGALTSGVHTFPAVLQSSGLYSLSSVVTVPSSSLGTQTYICNVNHKPSNTKVDKKVEPKSC light: DIVLTQSPAIMSASPGEKVTMTCSASSSVNYMYWYQQKSGTSPKRWIYDTSKLASGVPVRFSGSGSGSGGGGSDVQLVESGGGSVQAGGSLRLSCAASGSTDSIEYMTWFRQAPGKAREGVAALYTHTGNTYYTDSVKGRFTISQDKAKNMAYLRMDSVKSEDTAIYTCGATRKYVPVRFALDQSSYDYWGQGTQVTVSSGGGGSGGGGSGGGGSTSYSLTISSMETEDAATYYCQQWGRNPTFGGGTKLEIKRTVAAPSVFIFPPSDEQLKSGTASVVCLLNNFYPREAKVQWKVDNALQSGNSQESVTEQDSKDSTYSLSSTLTLSKADYEKHKVYACEVTHQGLSSPVTKSFNRGEC		26	
HyHEL5/VHH15Fwk3 (anti-lysozyme HyHEL5 Fab with anti-IL-6 VHH15 inserted into framework 3 of the light chain) (bispecific antibody, also called Antibody: HyHEL5 Fab, Framework 3 Insert: VHH15) heavy: EVQLQQSGAELMKPGASVKISCKASGYTFSDYWIEWVKQRPGHGLEWIGEILPGSGSTNYHERFKGKATFTADTSSSTAYMQLNSLTSEDSGVYYCLHGNYDFDGWGQGTTLTVSSASTKGPSVFPLAPSSKSTSGGTAALGCLVKDYFPEPVTVSWNSGALTSGVHTFPAVLQSSGLYSLSSVVTVPSSSLGTQTYICNVNHKPSNTKVDKKVEPKSC light: DIVLTQSPAIMSASPGEKVTMTCSASSSVNYMYWYQQKSGTSPKRWIYDTSKLASGVPVRFSGSGSGSGGGGSQVQLVESGGGSVQAGGSLRLSCVAASGYTGCTYDMRWYRQAPGKEREFVSGIDSDGRATYADSVKGRFTISQSNAKIAVYLQMDSLKLEDTAMYYCNLQCLRYPGEYYWGQGTQVTVSSGGGGSGGGGSGGGGSTSYSLTISSMETEDAATYYCQQWGRNPTFGGGTKLEIKRTVAAPSVFIFPPSDEQLKSGTASVVCLLNNFYPREAKVQWKVDNALQSGNSQESVTEQDSKDSTYSLSSTLTLSKADYEKHKVYACEVTHQGLSSPVTKSFNRGEC		310	
CA645/VHH D3L11Fwk3 (CA645 Fab with anti-lysozyme VHH D3L11 inserted into framework 3 of the light chain) (bispecific antibody, also called Antibody: CA645 Fab, Framework 3 Insert: VHH D3L11) heavy: EVQLLESGGGLVQPGGSLRLSCAVSGIDLSNYAINWVRQAPGKGLEWIGIIWASGTTFYATWAKGRFTISRDNSKNTVYLQMNSLRAEDTAVYYCARTVPGYSTAPYFDLWGQGTLVTVSSASTKGPSVFPLAPSSKSTSGGTAALGCLVKDYFPEPVTVSWNSGALTSGVHTFPAVLQSSGLYSLSSVVTVPSSSLGTQTYICNVNHKPSNTKVDKKVEPKSC light: DIQMTQSPSSVSASVGDRVTITCQSSPSVWSNFLSWYQQKPGKAPKLLIYEASKLTSGVPSRFSGSGSGSGGGGSDVQLVESGGGSVQAGGSLRLSCAASGSTDSIEYMTWFRQAPGKAREGVAALYTHTGNTYYTDSVKGRFTISQDKAKNMAYLRMDSVKSEDTAIYTCGATRKYVPVRFALDQSSYDYWGQGTQVTVSSGGGGSGGGGSGGGGSTDFTLTISSLQPEDFATYYCGGGYSSISDTTFGGGTKVEIKRTVAAPSVFIFPPSDEQLKSGTASVVCLLNNFYPREAKVQWKVDNALQSGNSQESVTEQDSKDSTYSLSSTLTLSKADYEKHKVYACEVTHQGLSSPVTKSFNRGEC		480	
